This is an account of results in IntAct's records for PubMed 15302918.

B1: Juxtaposed with another zinc finger protein 1 (Homo sapiens), Q86VZ6 (parent)
chain: MTGIAAASFFSNTCRFGGCGLHFPTLADLIEHIEDNHIDTDPRVLEKQELQQPTYVALSYINRFMTDAARREQESLKKKIQPKLSLTLSSSVSRGNVSTPPRHSSGSLTPPVTPPITPSSSFRSSTPTGSEYDEEEVDYEESDSDESWTTESAISSEAILSSMCMNGGEEKPFACPVPGCKKRYKNVNGIKYHAKNGHRTQIRVRKPFKCRCGKSYKTAQGLRHHTINFHPPVSAEIIRKMQQ
partner: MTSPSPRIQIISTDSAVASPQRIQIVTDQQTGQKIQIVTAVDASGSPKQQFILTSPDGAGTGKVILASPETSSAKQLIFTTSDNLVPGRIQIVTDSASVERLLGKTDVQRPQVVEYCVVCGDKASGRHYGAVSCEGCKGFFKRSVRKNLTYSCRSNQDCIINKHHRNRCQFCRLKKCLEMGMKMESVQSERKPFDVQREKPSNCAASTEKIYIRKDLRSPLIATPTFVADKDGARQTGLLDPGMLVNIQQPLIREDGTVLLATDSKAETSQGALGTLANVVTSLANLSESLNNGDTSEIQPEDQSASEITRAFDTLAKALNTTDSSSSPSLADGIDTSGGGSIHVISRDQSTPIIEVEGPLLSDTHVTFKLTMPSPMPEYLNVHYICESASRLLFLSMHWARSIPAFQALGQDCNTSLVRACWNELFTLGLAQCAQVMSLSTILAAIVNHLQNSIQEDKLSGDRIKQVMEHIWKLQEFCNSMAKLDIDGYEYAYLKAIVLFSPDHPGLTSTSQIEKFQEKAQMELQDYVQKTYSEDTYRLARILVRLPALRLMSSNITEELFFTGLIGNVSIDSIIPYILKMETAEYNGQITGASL
B2: Nuclear receptor subfamily 2 group C member 2 (Homo sapiens), P49116 (parent)
chain: B1 partner
partner: B1 chain

One assay covers variants of B1. The conditions noted are these: with nr2c2_human NR2C2, P49116.
As to L76P, the “effect of a mutation on the interaction” value is on record as “decreasing interaction strength”. Same read-out and setting: the value for Y60D was “disrupting interaction strength”; that for K47P was “with no effect”. Regarding A69P, the “effect of a mutation on the interaction” value is listed as “with no effect”.

Variants of B2 are the subject of a further assay. The conditions noted are these: with jazf1_human JAZF1, Q86VZ6.
For I576N, the “effect of a mutation on the interaction” value is listed as “decreasing interaction strength”.
